What was measured:
[1] = biological target: Met-IgG fusion protein (Homo sapiens (Human)) (UniProt P08581); test: HGF β/Met-IgG competition ELISA; tracer 250 nM biotinylated wildtype HGF β
[2] = biological target: Met-IgG fusion protein (Homo sapiens (Human)) (UniProt P08581); test: HGF β/Met-IgG competition ELISA; tracer biotinylated HGF β

UniProt P08581, sequence (P08581 25-930 limits assumed, form in doubt): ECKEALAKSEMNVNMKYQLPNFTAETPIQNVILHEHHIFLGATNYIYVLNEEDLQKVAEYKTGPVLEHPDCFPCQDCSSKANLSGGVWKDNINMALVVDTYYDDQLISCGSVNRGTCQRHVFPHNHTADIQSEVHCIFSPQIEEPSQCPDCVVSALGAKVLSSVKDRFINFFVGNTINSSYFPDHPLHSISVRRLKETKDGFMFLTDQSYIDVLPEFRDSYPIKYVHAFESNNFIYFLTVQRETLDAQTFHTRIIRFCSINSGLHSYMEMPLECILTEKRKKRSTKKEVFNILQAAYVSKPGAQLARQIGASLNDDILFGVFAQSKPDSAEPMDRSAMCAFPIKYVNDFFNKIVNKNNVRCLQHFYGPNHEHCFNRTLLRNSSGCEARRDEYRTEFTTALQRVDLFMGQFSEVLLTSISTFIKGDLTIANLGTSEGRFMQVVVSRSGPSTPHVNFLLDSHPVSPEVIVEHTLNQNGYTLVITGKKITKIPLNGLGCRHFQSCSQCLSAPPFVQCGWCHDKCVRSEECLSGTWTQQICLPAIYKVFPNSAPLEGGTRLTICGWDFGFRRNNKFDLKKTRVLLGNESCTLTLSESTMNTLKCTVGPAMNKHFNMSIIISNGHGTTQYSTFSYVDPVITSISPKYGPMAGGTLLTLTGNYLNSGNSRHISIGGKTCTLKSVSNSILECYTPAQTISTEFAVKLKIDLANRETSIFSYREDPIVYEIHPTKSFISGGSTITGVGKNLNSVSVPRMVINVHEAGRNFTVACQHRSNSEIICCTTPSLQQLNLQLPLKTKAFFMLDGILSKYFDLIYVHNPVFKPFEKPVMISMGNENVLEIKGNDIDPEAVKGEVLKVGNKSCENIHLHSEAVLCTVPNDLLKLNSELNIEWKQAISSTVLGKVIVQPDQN

proHGF β (HGF residues Asn479 to Ser728 with R494E) (from UniProt P14210 479-728) (ligand)
IC50 [1]: 11.6 µM | fold reduced binding against HGF β [1]: 13.5 fold | relative IC50 (normalized to HGF β) (relative to HGF β) [2]: 21

— patent US20060003931A1
